Measurements: article PMC10080908

Target: RNF111 RING (Homo sapiens), Q6ZNA4
Sequence (Q6ZNA4 939-986): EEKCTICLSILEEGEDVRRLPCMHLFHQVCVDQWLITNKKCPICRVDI

B1: UBXN7 UAS, O94888 (protein)
chain: IDKKLTTLADLFRPPIDLMHKGSFETAKECGQMQNKWLMINIQNVQDFACQCLNRDVWSNEAVKNIIREHFIFWQVYHDSEEGQRYIQFYKLGDFPYVSILDPRTGQKLVEWHQLDVSSFLDQVTGFLGE
Binder B1 has a Kd of 1000 nM.
